According to patent US20100047237A1:

How the values were obtained:
[1] = target: ALys amyloid fibrils extracted from human amyloidotic tissue (human) (UniProt P61626); test: 125I-SAP binding to fibrils; ALys fibrils at 0.05 A280-A320 units/ml; mean of 2 replicates
[2] = target: ALys amyloid fibrils extracted from human amyloidotic tissue (human) (UniProt P61626); test: 125I-SAP binding to fibrils; ALys fibrils at 0.02 A280-A320 units/ml; mean of 2 replicates
[3] = target: ALys amyloid fibrils extracted from human amyloidotic tissue (human) (UniProt P61626); test: 125I-SAP binding to fibrils; ALys fibrils at 0.002 A280-A320 units/ml; mean of 2 replicates
[4] = target: ALys amyloid fibrils extracted from human amyloidotic tissue (human) (UniProt P61626); test: 125I-SAP binding to fibrils; ALys fibrils at 0.2 A280-A320 units/ml; mean of 2 replicates

% ^125I-SAP counts bound [1]: 72% | % ^125I-SAP counts bound [2]: 45% | % ^125I-SAP counts bound [3]: 7% | % ^125I-SAP counts bound [4]: 79%
Substance: human serum amyloid P component (SAP), 125I-labelled (from UniProt P02743 20-223)
